Numbering of substitutions follows the chain as printed.
T1: LAG3 Protein, Human, Recombinant (His Tag) (Sino Biological Catalog No. 16498-H08H) (human, UniProt P18627 23-450)
T1 construct: Bought protein; also called hLAG3-His; LAG3-His; not shown: His tag
T1 sequence (looked up): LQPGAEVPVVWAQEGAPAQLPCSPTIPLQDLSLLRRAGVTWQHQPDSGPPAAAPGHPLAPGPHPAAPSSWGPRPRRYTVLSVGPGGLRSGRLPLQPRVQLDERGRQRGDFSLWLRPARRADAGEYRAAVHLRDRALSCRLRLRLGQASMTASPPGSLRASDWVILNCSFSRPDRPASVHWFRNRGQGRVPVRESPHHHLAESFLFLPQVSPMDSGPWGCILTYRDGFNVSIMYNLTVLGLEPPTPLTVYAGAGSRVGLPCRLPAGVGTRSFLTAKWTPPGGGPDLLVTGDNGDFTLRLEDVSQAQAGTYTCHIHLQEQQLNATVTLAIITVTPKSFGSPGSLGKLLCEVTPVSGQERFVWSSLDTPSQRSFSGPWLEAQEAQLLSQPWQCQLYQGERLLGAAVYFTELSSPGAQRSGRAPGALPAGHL

T2: human LAG3 expressed on cells (human, UniProt P18627 23-525)
T2 sequence (looked up): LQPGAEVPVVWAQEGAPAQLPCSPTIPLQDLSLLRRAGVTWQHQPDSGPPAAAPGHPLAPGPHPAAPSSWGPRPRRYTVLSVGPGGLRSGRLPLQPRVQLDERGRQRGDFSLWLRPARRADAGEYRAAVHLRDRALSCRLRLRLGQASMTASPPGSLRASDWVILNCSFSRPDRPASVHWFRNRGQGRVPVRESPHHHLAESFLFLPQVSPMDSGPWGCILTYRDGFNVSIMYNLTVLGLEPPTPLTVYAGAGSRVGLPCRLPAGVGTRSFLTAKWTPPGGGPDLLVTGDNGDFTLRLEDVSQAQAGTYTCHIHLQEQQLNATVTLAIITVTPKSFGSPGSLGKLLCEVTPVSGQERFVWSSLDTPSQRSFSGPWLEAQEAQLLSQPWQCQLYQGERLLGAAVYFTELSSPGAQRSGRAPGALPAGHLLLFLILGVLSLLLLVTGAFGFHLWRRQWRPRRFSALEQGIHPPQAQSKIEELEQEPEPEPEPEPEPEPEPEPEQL

B1: sdAb No. 73 (VHH)
VHH: QVQLVESGGGLVQPGGSLKLSCTASGFTLDYYAIAWFRQAPGKEREAVSCISSSDGSTRYADSVKGRFTISRDNAKNTVYLQMNSLKPEDTAVYYCAADPYGDCRGPYDYWGQGTQVTVSS
notes: Fc not described; also called sdAb 73; not shown: Fc part implied by anti-human Fc capture
B2: sdAb No. 1 (VHH)
VHH: QLQLVESGGGLVQAGGSLRLSCAASGFTFDDYAIGWFRQAPGKEREGVSCIRSSDGSTYYADSVKGRFTISSDNAKNTVYLQMNSLKPEDTAVYYCAKDNYSDCRGPYHYWGQGTQVTVSS
notes: the tested form was captured by anti-human Fc, its Fc is not described; also called sdAb 1; not shown: Fc part implied by anti-human Fc capture
B3: sdAb No. 20 (VHH)
VHH: QVQLVESGGGLVQPGGSLRLSCAASGLTLDGYAVGWFRQAPGKDREGLSCISGSDGSTHYLDSVKGRFTISRDNAKSTMALQMNSLQFGDTAIYYCAARRGSCSGSWTYWGQGTQVTVSS
notes: Fc of the tested form not described; also called sdAb 20; not shown: Fc part implied by anti-human Fc capture
B4: sdAb No. 21 (VHH)
VHH: B3 VHH with V2L, V34I, G35A, D44E, S54T, A75G, S77N, V116I
notes: Fc of the tested form not described; also called sdAb 21; not shown: Fc part implied by anti-human Fc capture
B5: sdAb No. 24 (VHH)
VHH: QLQLVESGGGLVQPGGSLRLSCAASGFTLNEHAIGWFRQAPGKEREGVSCISSSDGSTYYHDSVKGRFTMSRDDAKNTVYLQMNSLKAEDTAIYYCAAALGRDCQGGQWKTSSWGQGTQVTVSS
notes: Fc of the tested form not described; also called sdAb 24; not shown: Fc part implied by anti-human Fc capture

Tests used:
[1] = molecular target: T1, LAG3 Protein, Human, Recombinant (His …); assay: SPR binning on LAG3-His; competitor 17
Procedure: (§1) The chip surface was regenerated after each cycle with 25 mM NaOH followed by HBS-EP wash provided in the kit.

[2] = molecular target: T1, LAG3 Protein, Human, Recombinant (His …); assay: SPR (Biacore), sdAb captured by anti-human Fc, LAG3-His analyte
Procedure: The binding of the single domain antibodies to recombinant human LAG3 protein (rhLAG3) was examined by Biacore™ assay. […] The coating was carried out according to the manufacturer’s instructions accompanying the kit (Catalog No. BR-1008-39, GE). […] The chip surface was regenerated after each cycle with 25 mM NaOH followed by HBS-EP wash provided in the kit.

[3] = molecular target: T1, LAG3 Protein, Human, Recombinant (His …); assay: SPR binning on LAG3-His; competitor BMS
Procedure: as §1

[4] = molecular target: T1, LAG3 Protein, Human, Recombinant (His …); assay: SPR binning on LAG3-His; competitor 18
Procedure: as §1

[5] = molecular target: T2, human LAG3 expressed on cells; assay: cell-based or functional assay
[6] = molecular target: T2, human LAG3 expressed on cells; assay: cell-based or functional assay; remark: listed apart in the source
[7] = molecular target: T1, LAG3 Protein, Human, Recombinant (His …); assay: SPR binning on LAG3-His; competitor 1
Procedure: as §1

[8] = molecular target: T1, LAG3 Protein, Human, Recombinant (His …); assay: SPR binning on LAG3-His; competitor 25
Procedure: as §1

[9] = molecular target: T1, LAG3 Protein, Human, Recombinant (His …); assay: SPR binning on LAG3-His; competitor 27
Procedure: as §1

[10] = molecular target: T1, LAG3 Protein, Human, Recombinant (His …); assay: SPR binning on LAG3-His; competitor 73
Procedure: as §1

[11] = molecular target: T1, LAG3 Protein, Human, Recombinant (His …); assay: SPR binning on LAG3-His; competitor 20
Procedure: as §1

[12] = molecular target: T1, LAG3 Protein, Human, Recombinant (His …); assay: SPR binning on LAG3-His; competitor 24
Procedure: as §1

[13] = molecular target: T1, LAG3 Protein, Human, Recombinant (His …); assay: SPR binning on LAG3-His; competitor 37
Procedure: as §1

[14] = molecular target: T1, LAG3 Protein, Human, Recombinant (His …); assay: SPR binning on LAG3-His; competitor 21
Procedure: as §1

RU [1] [RU] | koff [2] [s⁻¹] | kon [2] [M⁻¹ s⁻¹] | RU [3] [RU] | RU [4] [RU] | EC50 for IL-2 rescue, hLAG3 Jurkat T system [5] [nM] | Efficacy (IL-2 production, BMS = 100%) [5] [%] | IL-2, % of BMS, at 0.005080526 ug/mL [6] [%] | IL-2, % of BMS, at 0.015241579 ug/mL [6] [%] | IL-2, % of BMS, at 0.045724737 ug/mL [6] [%] | IL-2, % of BMS, at 0.137174211 ug/mL [6] [%] | IL-2, % of BMS, at 0.411522634 ug/mL [6] [%] | IL-2, % of BMS, at 1.234567901 ug/mL [6] [%] | IL-2, % of BMS, at 3.703703704 ug/mL [6] [%] | IL-2, % of BMS, at 11.11111111 ug/mL [6] [%] | IL-2, % of BMS, at 33.33333333 ug/mL [6] [%] | IL-2, % of BMS, at 100 ug/mL [6] [%] | RU [7] [RU] | RU [8] [RU] | RU [9] [RU] | other results | Binder
-12.5 | 0.000975 | 5.35e+06 | 27 | -10.6 | 42.6 | 56.4 | 0.495 | 3.55 | 3.63 | 6.64 | 15.5 | 19.5 | 24.5 | 30.6 | 36.8 | 41 | -7.3 | 9.8 | -2.2 | Kd [2]: 0.182 nM; RU [10]: -9.7 RU; RU [11]: -117 RU; RU [12]: -9.6 RU; RU [13]: -6.9 RU; RU [14]: -10.2 RU | B1
-6.9 | 5.05e-08 | 4.77e+06 | 37.4 | -10.7 | 15.7 | 41.4 | 8.4 | 8.77 | 6.07 | 14.2 | 14.8 | 30.7 | 46.4 | 45.7 | 54.4 | 51.3 | 22 | 30 | 4.9 | RU [10]: -11.6 RU; RU [11]: -14.8 RU; RU [12]: -10.6 RU; RU [13]: -8.4 RU; RU [14]: -114 RU | B2
-7.8 | 0.000429 | 1.71e+06 | 23.3 | -12 | 14.2 | 26.9 | 8.49 | 9.36 | 3.55 | 6.06 | 14.7 | 20.3 | 38 | 33 | 34.5 | 35.1 | -9.9 | 205 | -16.6 | Kd [2]: 0.252 nM; RU [10]: -21.8 RU; RU [11]: -24.2 RU; RU [12]: -209 RU; RU [13]: -19.3 RU; RU [14]: -20.1 RU | B3
-12 | 0.00178 | 6.41e+06 | 194 | -10.3 | 3.41 | 31 | 10.5 | 13.7 | 13.4 | 21.7 | 24.6 | 27.7 | 32.8 | 31.7 | 38.9 | 35 | -4.7 | 179 | -14.8 | Kd [2]: 0.278 nM; RU [10]: -19.5 RU; RU [11]: -12.6 RU; RU [12]: -18.9 RU; RU [13]: -17.3 RU; RU [14]: -19.1 RU | B4
-13.6 | 3.39e-05 | 894000 | 30.5 | -11.2 | 35.8 | 44.7 | 10.7 | 2.74 | 3.44 | 10.8 | 1.26 | 17.8 | 34.9 | 47.2 | 57.7 | 48.2 | -8.8 | 33.2 | -6.6 | Kd [2]: 0.038 nM; RU [10]: -11.3 RU; RU [11]: -12.9 RU; RU [12]: -10.1 RU; RU [13]: -8.5 RU; RU [14]: -12 RU | B5

From patent US20230303690A1 (published 2023)
